Experimental data published in patent US20250277020A1 (Boehringer Ingelheim, published 2025).
Substitutions are numbered along the chain they refer to.

Target: T1, Full-length human CTGF (human, UniProt P29279 27-349)
T1 construct: Corresponds to NCBI NP_001892.1 with the signal peptide omitted; purchased from R&D Systems; also called hCTGF full length; full length CTGF
T1 sequence: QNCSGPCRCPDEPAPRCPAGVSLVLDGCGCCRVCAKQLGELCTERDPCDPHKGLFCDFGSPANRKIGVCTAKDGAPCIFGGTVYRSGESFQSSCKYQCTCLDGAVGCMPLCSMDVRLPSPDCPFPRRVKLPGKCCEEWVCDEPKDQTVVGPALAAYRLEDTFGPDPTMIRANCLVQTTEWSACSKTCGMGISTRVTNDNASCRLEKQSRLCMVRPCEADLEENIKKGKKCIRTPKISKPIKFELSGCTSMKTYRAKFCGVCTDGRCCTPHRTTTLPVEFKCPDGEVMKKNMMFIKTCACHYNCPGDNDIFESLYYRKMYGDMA
Test: SPR, full length CTGF

B1: A75 (antibody, human IgG1, kappa, L234A L235A, V domains shown)
VH: EVQLVESGGGLVQPGGSLRLSCAASGFTFSDYYMAWVRQAPGKGLEWVANINYEGSRTDLLASLKSRFTISRDNAKNSVYLQMNSLRAEDTAVYYCARDTSRGSYFDVWGAGTTVTVSS
VL: VVMTQTPLSLPVSLGDQASISCRSSQSIVHYNGKTYLEWYLQKPGQSPQLLIYKVSNRFSGVPDRFSGSGSGTDFTLKISRVEAEDLGVYYCFQGSHFPLTFGQGTKLEIKR
  Kd: 0.17 nM

B2: A102 (antibody, human IgG1, kappa, L234A L235A)
light: VVMTQTPLSLSVSLGDQASISCKSSQSIVHYNGNTYLEWYLQKPGQSPQLLIYKVSSRASGVPDRFSGSGSGTDFTLKISRVEAEDLGVYYCFQGSHFPLTFGQGTKLEIKRTVAAPSVFIFPPSDEQLKSGTASVVCLLNNFYPREAKVQWKVDNALQSGNSQESVTEQDSKDSTYSLSSTLTLSKADYEKHKVYACEVTHQGLSSPVTKSFNRGEC
heavy: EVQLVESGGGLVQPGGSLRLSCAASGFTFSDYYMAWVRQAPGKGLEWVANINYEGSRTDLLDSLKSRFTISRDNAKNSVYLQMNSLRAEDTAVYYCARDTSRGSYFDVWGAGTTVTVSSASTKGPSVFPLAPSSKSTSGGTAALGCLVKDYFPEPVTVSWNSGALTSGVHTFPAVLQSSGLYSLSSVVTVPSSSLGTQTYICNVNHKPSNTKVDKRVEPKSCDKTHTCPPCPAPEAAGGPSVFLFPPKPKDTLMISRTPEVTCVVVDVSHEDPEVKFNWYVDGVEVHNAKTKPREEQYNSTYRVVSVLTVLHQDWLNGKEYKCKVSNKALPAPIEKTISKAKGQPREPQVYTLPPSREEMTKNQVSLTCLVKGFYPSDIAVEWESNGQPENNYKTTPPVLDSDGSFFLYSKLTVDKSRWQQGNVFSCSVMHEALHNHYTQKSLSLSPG
  Kd: 0.15 nM

B3: A94 (antibody, human IgG1, kappa, L234A L235A, V domains shown)
VH: B1 VH with A62D
VL: B1 VL with P11S, R23K, K34N, N57S
  Kd: 0.19 nM

B4: A77 (antibody, human IgG1, kappa, L234A L235A)
light: B2 light with S11P, K23R, N34K, S57N, A59F
heavy: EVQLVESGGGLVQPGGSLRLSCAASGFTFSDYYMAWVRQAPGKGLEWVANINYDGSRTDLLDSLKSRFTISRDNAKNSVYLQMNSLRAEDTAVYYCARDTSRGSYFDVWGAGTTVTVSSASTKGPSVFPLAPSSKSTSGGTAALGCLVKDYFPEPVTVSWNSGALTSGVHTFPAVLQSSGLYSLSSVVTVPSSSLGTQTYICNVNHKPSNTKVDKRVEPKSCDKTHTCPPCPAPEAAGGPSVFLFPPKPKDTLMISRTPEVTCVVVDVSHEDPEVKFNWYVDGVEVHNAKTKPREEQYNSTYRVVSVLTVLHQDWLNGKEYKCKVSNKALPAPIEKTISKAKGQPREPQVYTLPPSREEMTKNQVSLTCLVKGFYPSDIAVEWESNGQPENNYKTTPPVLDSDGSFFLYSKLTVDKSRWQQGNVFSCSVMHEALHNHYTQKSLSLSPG
  Kd: 0.23 nM

B5: A121 (antibody, human IgG1, kappa, L234A L235A, V domains shown)
VH: B1 VH with A62E
VL: B1 VL with K34N, F59D
  Kd: 0.24 nM

B6: A123 (antibody, human IgG1, kappa, L234A L235A, V domains shown)
VH: B1 VH
VL: B1 VL with K34N, F59D
  Kd: 0.21 nM

B7: A84 (antibody, human IgG1, kappa, L234A L235A, V domains shown)
VH: B1 VH with E54Y
VL: B1 VL with G33E
  Kd: 0.29 nM

B8: A83 (antibody, human IgG1, kappa, L234A L235A, V domains shown)
VH: B1 VH
VL: B1 VL with G33E
  Kd: 0.26 nM

B9: A103 (antibody, human IgG1, kappa, L234A L235A)
light: B2 light
heavy: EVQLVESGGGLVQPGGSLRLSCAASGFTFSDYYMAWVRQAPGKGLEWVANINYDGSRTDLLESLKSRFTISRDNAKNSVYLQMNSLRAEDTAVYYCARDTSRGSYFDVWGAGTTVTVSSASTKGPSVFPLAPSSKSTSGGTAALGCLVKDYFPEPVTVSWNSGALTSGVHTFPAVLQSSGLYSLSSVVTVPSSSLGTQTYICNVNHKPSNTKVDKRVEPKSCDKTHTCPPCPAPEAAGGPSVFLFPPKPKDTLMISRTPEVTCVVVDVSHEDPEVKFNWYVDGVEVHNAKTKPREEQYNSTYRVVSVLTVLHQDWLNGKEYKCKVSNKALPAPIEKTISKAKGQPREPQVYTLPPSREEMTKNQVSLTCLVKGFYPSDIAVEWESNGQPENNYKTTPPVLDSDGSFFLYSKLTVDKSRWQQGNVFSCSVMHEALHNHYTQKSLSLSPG
  Kd: 0.15 nM

B10: A90 (antibody, human IgG1, kappa, L234A L235A, V domains shown)
VH: B1 VH with E54Y, A62E
VL: B1 VL with P11S, R23K, K34N, N57S
  Kd: 0.17 nM

B11: A88 (antibody, human IgG1, kappa, L234A L235A)
light: B2 light with S11P, K23R, G33E, N34K, S57N, A59F
heavy: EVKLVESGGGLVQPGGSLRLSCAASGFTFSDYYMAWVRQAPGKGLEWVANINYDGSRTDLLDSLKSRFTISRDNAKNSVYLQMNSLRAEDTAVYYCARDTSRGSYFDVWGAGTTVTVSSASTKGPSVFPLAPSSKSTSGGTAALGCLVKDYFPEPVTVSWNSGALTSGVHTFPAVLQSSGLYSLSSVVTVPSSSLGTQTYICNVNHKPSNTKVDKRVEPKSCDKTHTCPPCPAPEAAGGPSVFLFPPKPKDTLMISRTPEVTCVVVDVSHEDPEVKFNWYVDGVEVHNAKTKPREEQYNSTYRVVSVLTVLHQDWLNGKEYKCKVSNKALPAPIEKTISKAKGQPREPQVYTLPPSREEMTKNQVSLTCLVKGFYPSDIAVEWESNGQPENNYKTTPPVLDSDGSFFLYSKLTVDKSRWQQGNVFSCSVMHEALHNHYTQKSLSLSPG
  Kd: 0.32 nM

B12: A91 (antibody, human IgG1, kappa, L234A L235A, V domains shown)
VH: B1 VH
VL: B1 VL with P11S, R23K, K34N, N57S
  Kd: 0.13 nM

B13: A96 (antibody, human IgG1, kappa, L234A L235A)
light: B2 light with A59F
heavy: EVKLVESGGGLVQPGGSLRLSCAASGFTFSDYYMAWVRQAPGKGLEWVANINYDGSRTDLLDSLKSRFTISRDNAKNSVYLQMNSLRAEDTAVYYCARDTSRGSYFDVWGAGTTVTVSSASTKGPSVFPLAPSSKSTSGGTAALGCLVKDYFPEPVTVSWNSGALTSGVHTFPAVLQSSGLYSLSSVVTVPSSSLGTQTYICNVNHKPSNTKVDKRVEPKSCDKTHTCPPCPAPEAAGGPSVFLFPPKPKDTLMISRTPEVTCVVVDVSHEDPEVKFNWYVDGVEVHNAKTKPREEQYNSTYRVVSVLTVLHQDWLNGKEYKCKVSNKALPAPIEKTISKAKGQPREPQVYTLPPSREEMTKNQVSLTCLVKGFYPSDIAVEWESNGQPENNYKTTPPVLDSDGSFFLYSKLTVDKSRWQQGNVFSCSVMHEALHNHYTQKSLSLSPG
  Kd: 0.19 nM

B14: A78 (antibody, human IgG1, kappa, L234A L235A, V domains shown)
VH: B1 VH with A62D
VL: B1 VL
  Kd: 0.23 nM

B15: A95 (antibody, human IgG1, kappa, L234A L235A, V domains shown)
VH: B1 VH with E54D, A62E
VL: B1 VL with P11S, R23K, K34N, N57S
  Kd: 0.19 nM

B16: A101 (antibody, human IgG1, kappa, L234A L235A)
light: B2 light
heavy: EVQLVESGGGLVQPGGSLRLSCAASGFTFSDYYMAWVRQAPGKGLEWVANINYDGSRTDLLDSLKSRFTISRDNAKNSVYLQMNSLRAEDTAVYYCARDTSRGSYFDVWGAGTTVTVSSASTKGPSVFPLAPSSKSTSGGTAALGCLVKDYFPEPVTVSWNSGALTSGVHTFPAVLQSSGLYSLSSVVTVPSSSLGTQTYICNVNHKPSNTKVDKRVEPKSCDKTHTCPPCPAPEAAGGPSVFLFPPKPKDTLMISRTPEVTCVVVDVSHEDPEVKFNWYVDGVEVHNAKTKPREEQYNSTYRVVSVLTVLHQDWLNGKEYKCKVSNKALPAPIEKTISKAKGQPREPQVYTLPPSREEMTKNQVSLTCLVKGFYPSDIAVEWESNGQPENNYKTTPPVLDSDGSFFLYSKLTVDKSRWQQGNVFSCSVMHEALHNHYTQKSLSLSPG
  Kd: 0.17 nM

B17: A104 (antibody, human IgG1, kappa, L234A L235A)
light: B2 light
heavy: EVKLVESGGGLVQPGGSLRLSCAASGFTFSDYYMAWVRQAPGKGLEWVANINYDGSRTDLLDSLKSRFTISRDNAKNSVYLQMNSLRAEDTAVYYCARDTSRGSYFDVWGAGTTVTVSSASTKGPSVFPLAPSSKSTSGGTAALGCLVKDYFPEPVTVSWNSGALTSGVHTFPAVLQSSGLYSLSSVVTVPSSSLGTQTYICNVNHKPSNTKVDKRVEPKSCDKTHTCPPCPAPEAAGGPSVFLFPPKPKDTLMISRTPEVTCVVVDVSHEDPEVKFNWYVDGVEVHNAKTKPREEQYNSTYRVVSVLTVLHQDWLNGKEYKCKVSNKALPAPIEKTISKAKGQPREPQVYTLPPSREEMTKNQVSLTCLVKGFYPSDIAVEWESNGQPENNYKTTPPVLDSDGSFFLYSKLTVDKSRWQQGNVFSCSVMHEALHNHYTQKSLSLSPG
  Kd: 0.17 nM

B18: A76 (antibody, human IgG1, kappa, L234A L235A, V domains shown)
VH: B1 VH with E54Y
VL: B1 VL
  Kd: 0.18 nM

B19: A98 (antibody, human IgG1, kappa, L234A L235A)
light: B2 light
heavy: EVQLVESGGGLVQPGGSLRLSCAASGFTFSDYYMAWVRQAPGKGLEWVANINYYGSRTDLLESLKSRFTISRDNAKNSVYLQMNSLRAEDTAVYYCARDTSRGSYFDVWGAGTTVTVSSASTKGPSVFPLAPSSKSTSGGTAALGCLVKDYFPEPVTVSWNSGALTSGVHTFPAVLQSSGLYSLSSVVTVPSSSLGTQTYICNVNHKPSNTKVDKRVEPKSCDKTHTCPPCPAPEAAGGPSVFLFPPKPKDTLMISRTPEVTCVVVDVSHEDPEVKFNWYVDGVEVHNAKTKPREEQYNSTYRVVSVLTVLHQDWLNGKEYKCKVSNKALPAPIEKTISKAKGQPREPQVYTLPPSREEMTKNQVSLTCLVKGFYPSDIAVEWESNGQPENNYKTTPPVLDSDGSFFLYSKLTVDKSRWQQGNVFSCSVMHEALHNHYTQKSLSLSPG
  Kd: 0.12 nM

B20: A93 (antibody, human IgG1, kappa, L234A L235A)
light: B2 light with A59F
heavy: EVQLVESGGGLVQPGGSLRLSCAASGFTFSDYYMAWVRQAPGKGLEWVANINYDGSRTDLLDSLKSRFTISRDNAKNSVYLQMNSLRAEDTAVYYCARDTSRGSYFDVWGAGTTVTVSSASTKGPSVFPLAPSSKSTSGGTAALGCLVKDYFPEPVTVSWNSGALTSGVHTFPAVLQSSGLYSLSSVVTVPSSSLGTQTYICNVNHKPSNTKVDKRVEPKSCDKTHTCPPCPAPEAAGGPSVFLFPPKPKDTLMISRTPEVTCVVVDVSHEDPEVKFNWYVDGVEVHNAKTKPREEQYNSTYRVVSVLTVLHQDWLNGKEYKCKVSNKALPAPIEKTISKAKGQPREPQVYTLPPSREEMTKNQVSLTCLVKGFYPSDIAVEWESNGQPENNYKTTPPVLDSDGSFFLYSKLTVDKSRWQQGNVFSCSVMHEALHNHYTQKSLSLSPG
  Kd: 0.18 nM

B21: A92 (antibody, human IgG1, kappa, L234A L235A, V domains shown)
VH: B1 VH with E54Y
VL: B1 VL with P11S, R23K, K34N, N57S
  Kd: 0.16 nM

B22: A85 (antibody, human IgG1, kappa, L234A L235A)
light: B2 light with S11P, K23R, G33E, N34K, S57N, A59F
heavy: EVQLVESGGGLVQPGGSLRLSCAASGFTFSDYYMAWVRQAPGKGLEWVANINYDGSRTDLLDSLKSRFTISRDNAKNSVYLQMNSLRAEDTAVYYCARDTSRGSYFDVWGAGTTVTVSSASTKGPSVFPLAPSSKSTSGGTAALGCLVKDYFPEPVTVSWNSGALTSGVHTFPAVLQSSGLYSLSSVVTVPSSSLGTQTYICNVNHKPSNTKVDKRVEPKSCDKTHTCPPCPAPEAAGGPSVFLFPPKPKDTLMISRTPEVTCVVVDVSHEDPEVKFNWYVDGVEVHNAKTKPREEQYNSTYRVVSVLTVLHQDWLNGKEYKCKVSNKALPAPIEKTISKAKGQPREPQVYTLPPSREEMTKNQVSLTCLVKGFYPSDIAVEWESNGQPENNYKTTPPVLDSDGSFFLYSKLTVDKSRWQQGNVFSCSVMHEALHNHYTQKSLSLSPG
  Kd: 0.28 nM

B23: A87 (antibody, human IgG1, kappa, L234A L235A, V domains shown)
VH: B1 VH with E54D, A62E
VL: B1 VL with G33E
  Kd: 0.34 nM

B24: A81 (antibody, human IgG1, kappa, L234A L235A, V domains shown)
VH: B1 VH with A62E
VL: B1 VL with G33E
  Kd: 0.29 nM

B25: A122 (antibody, human IgG1, kappa, L234A L235A, V domains shown)
VH: B1 VH with E54Y, A62E
VL: B1 VL with K34N, F59D
  Kd: 0.23 nM

B26: A80 (antibody, human IgG1, kappa, L234A L235A)
light: B2 light with S11P, K23R, N34K, S57N, A59F
heavy: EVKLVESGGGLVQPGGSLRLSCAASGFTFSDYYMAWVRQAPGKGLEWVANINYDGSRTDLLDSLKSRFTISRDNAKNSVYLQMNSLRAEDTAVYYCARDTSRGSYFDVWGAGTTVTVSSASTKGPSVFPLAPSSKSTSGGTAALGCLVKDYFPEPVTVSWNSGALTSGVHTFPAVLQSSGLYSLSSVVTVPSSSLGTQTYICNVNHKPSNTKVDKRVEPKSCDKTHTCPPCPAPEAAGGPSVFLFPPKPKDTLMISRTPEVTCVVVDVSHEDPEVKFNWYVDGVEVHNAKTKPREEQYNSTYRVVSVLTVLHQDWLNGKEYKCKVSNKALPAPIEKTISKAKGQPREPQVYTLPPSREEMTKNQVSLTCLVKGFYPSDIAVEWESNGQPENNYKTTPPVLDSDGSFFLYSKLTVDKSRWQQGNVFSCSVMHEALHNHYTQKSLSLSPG
  Kd: 0.25 nM

B27: A100 (antibody, human IgG1, kappa, L234A L235A)
light: B2 light
heavy: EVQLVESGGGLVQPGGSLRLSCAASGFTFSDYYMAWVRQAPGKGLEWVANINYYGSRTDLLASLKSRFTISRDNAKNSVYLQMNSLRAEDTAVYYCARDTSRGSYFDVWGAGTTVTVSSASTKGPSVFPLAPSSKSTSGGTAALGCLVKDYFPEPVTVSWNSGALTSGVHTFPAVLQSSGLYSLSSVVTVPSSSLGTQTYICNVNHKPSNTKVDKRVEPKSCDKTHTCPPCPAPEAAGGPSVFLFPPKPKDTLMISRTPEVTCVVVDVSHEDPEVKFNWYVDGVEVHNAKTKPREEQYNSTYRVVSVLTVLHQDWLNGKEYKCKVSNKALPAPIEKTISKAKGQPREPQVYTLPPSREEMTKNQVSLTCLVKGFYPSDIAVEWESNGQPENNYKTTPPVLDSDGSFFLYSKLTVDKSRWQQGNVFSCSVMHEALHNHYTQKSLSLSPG
  Kd: 0.13 nM

B28: A82 (antibody, human IgG1, kappa, L234A L235A, V domains shown)
VH: B1 VH with E54Y, A62E
VL: B1 VL with G33E
  Kd: 0.36 nM

B29: A124 (antibody, human IgG1, kappa, L234A L235A, V domains shown)
VH: B1 VH with E54Y
VL: B1 VL with K34N, F59D
  Kd: 0.25 nM

B30: A99 (antibody, human IgG1, kappa, L234A L235A)
light: B2 light
heavy: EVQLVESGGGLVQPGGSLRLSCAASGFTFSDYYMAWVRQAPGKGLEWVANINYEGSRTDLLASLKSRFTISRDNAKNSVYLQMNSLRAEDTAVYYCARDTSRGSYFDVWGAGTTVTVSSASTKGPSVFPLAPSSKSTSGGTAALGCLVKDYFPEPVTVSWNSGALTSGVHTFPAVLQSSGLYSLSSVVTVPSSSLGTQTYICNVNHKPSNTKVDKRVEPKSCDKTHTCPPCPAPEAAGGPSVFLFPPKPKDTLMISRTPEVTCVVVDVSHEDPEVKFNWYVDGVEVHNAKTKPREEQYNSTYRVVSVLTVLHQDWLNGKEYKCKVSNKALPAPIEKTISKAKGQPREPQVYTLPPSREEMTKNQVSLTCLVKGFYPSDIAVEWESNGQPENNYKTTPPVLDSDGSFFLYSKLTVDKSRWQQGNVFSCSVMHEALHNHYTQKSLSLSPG
  Kd: 0.11 nM

B31: A79 (antibody, human IgG1, kappa, L234A L235A, V domains shown)
VH: B1 VH with E54D, A62E
VL: B1 VL
  Kd: 0.16 nM

B32: A89 (antibody, human IgG1, kappa, L234A L235A, V domains shown)
VH: B1 VH with A62E
VL: B1 VL with P11S, R23K, K34N, N57S
  Kd: 0.16 nM
